A short description of this series: confocal imaging, co-localisation with Na+/K+-ATPase, HEK293. Conditions: glycan lost; control: wild-type 3xFLAG-rPRG3.

B1: rPRG3 (plasticity-related gene 3, LPR1): N163Q (protein)
parent chain: MAVENNTQRSYSIIPCFIFVELVIMAGTVLLAYYFECTDTFQVHIQGFFCQDGDLMKPYPGTEEESFISPLVLYCVLAATPTAIIFIGEISMYFIKSTRESLIAEEKMILTGDCCYLSPLLRRIVRFIGVFAFGLFATDIFVNAGQVVTGHLTPYFLTVCQPNYTSTDCRAHHQFINNGNICTGDLEVIEKARRSFPSKHAALSIYSALYATMYITSTIKTKSSRLAKPVLCLGDLCTAFLTGLNRVSEYRNHCSDVIAGFILGTAVALFLGMCVVHNFKGTQGSASKPKPEDPRGVPLMAFPRIESPLETLSAQNHSASMTEVT
As to B1, the localisation_or_trafficking result was “abolishes”.
